Laboratory results from article PMC3400628 (PLoS ONE, 2012).

Target: T1, Flag-NOD2 (human, UniProt Q9HC29 1-1040)
T1 construct: NOD2, human; The deletion constructs count up to aa 1040, the length of whole NOD2; also called NOD2 WT; Flag-NOD2 WT; source: HEK293T, transfected, in lysate; not shown: Flag, N-terminal, kept
Conditions: partners not purified

B1: myc-TRIM27 WT (natural protein, human, UniProt P14373 1-513, looked up)
chain: MASGSVAECLQQETTCPVCLQYFAEPMMLDCGHNICCACLARCWGTAETNVSCPQCRETFPQRHMRPNRHLANVTQLVKQLRTERPSGPGGEMGVCEKHREPLKLYCEEDQMPICVVCDRSREHRGHSVLPLEEAVEGFKEQIQNQLDHLKRVKDLKKRRRAQGEQARAELLSLTQMEREKIVWEFEQLYHSLKEHEYRLLARLEELDLAIYNSINGAITQFSCNISHLSSLIAQLEEKQQQPTRELLQDIGDTLSRAERIRIPEPWITPPDLQEKIHIFAQKCLFLTESLKQFTEKMQSDMEKIQELREAQLYSVDVTLDPDTAYPSLILSDNLRQVRYSYLQQDLPDNPERFNLFPCVLGSPCFIAGRHYWEVEVGDKAKWTIGVCEDSVCRKGGVTSAPQNGFWAVSLWYGKEYWALTSPMTALPLRTPLQRVGIFLDYDAGEVSFYNVTERCHTFTFSHATFCGPVRPYFSLSYSGGKSAAPLIICPMSGIDGFSGHVGNHGHSMETSP
notes: TRIM27, human, full length (aa 1-513 by the deletion constructs); cDNA from ImaGenes; also called RFP; source: HEK293T, transfected, in lysate; not shown: 3xmyc, N-terminal, kept
How did the “fold change of TRIM27 co-precipitated with NOD2 at 3 h after 10 µM MDP against untreated controls” value turn out when B1 was run?
Its value is greater than 2 fold.
